# B1: 2-13: anti-FAM19A5 antibody; VH SEQ ID NO: 35, VL SEQ ID NO: 39 (antibody, V domains shown)
# VH: AVTLDESGGGLQTPGGALSLVCKASGFTFSSHGMFWVRQTPGKGLEYVAEITNDGSGTNYGSAVKGRATISRDNGQSTVRLQLNNLRAEDTGTYFCARSTYECPGGFSCWGDTGQIDAWGHGTEVIVSS
# VL: ALTQPSSVSANPGETVKITCSGGSYSYGWFQQKSPGSALVTVIYWDDERPSDIPSRFSGALSGSTNTLTITGVQADDEAVYFCGTEDISGTAGVFGAGTTLTVL
# modifications: 2-13 VH; 2-13 VL
# B2: 1-30: anti-FAM19A5 antibody, de-immunized variant of 3-2; VH SEQ ID NO: 235, VL SEQ ID NO: 240 (antibody, V domains shown)
# VH: AVTLDESGGGLQTPGGALRLSCKASGFDFESFNMFWVRQAPGKGLEYVSQISSSEEDENYAPAVKGRATISRDNGQSTLYLQMNSLRAEDTGTYYCAKSSYDCPYGHCSSGVDSAGEIDAWGHGTEVIVSS
# VL: ALTQPSSVSANPGETVKITCSGGGSEEEQYYYGWYQQKPGSAPVTLIYQDEERPSDIPSRFSGSTSGSTATLTITGVQAGDEADYYCGSWDSEDEDHFGAGTTLTVL
# modifications: Low-PI VH, 1-30 VH, 1-17 VH, 1-32 VH, 4-11 VH, 6-10 VH; 1-30 VL
# Columns and labels:
# [1] = molecular target: human FAM19A5 (Homo sapiens, UniProt Q7Z5A7); assay: HDX-MS epitope mapping; format: binding; conditions: HDX-MS deuterium uptake heat map; residues of SEQ ID NO: 304
# Method: Hydrogen/deuterium exchange mass spectrometry (HDX-MS) was utilized as described below to probe the binding epitope of human FAM19A5 for the clone 2-13 anti-FAM19A5 antibody.
# Prior to epitope mapping experiments, non-deuteriated experiments were carried out to generate a list of common peptides for FAM19A5 protein. Off-line and on-line pepsin digestion were used to digest the FAM19A5 protein. Houde, D., et al., Methods Mol Biol 988:269-89 (2013). With on-line digestion, pepsin immobilized column was used (~20° C.) and the efficiency of the reaction was regulated by adjusting the flow rate. With the off-line method, FAM19A5 protein was digested manually with pepsin at 4° C. for 5 minutes, and then, the mixture was loaded to liquid chromatography column for analysis. To identify the condition for maximal protein coverage, one or more of the following parameters were adjusted: potassium phosphate, sodium phosphate, quench holding time, reducing reagent (TCEP), urea concentration, and pepsin concentration. The Waters PLGS software was used to analyze the raw mass spectrometry (MS) data generated to determine whether maximal protein coverage was obtained. To confirm the reproducibility of the experiments, each of the experimental conditions were repeated at least twice, and peptides that were generated were confirmed. […]
# [2] = test system: noise-induced hearing loss mouse model; assay: Noise-induced hearing loss mouse model, first antibody dose one day prior to noise exposure; format: in vivo
# Method: FIGS. 6A, 6B, 6C, 6D, and 6E show the therapeutic effect of FAM19A5 antagonists on auditory brainstem response (ABR) threshold in a noise-induced hearing loss mouse model. FIG. 6A provides a schematic of the experimental design. As shown, anti-FAM19A5 antibody (1-30) or control human IgG antibody was administered to the mice intravenously once a week (30 mg/kg per dose) for a total of five administrations. The first dose of the antibodies was administered one day before noise exposure. For noise-induced hearing loss induction, the animals were subjected to temporary threshold shift (TTS) of 105 decibels for 30 minutes. ABR (i.e., hearing test) was measured both prior to the initial administration of the antibodies and then at various times after administration. FIGS. 6B, 6C, 6D, and 6E provide comparison of ABR threshold between mice administered with the control human IgG (circle), anti-FAM19A5 antibody (square), or before noise (triangle) at the following time points: (i) before TTS exposure, (ii) 1 day after TTS exposure, (iii) 2 weeks after TTS exposure, (iv) 4 weeks after TTS exposure, and […], respectively. ABR threshold was measured at a frequency ranging from 4 kHz to 64 kHz.
# FIGS. 7A, 7B, 7C, and 7D show the therapeutic effect of FAM19A5 antagonists on distortion product […] emission (DPOAE) threshold in a noise-induced hearing loss mouse model. The overall experimental design is the same as that described in FIG. 6A. DPOAE threshold data was measured after antibody administration and: (i) before TTS exposure (FIG. 7A), (ii) 1 day after TTS exposure (FIG. 7B), (iii) 2 weeks after TTS exposure (FIG. 7C), and (iv) 4 weeks after TTS exposure (FIG. 7D). DPOAE threshold was measured at a frequency ranging between about 4 kHz to about 32 kHz.
# FIGS. 8A and 8B show the effect of FAM19A5 antagonists on distortion product […] emission (DPOAE) amplitude in a noise-induced hearing loss mouse model. The overall experimental design is the same as that described in FIG. 6A. DPOAE amplitude data was measured after antibody administration at 2 weeks after TTS exposure. FIG. 8A provides a comparison of the average DPOAE amplitude value as a function of different noise level for the following groups: (i) before noise (triangle), (ii) control antibody treated (circle), and (iii) anti-FAM19A5 treated (square). FIG. 8B provides a spectral level profile for each of the groups.
# FIGS. 11A and 11B show the effect of FAM19A5 antagonists on ABR I/O function in a noise-induced hearing loss mouse model. The overall experimental design is the same as that described in FIG. 6A. FIG. 11A provides wave I amplitude before noise (left graph) and at 2 weeks after noise (right graph).
# FIG. 11B provides wave I amplitude at 4 weeks after noise. For each of FIGS. 11A and 11B, the following groups of animals are shown: (i) control antibody treated (circle) and (ii) anti-FAM19A5 antibody treated (square). For comparison purposes, wave I amplitude before noise exposure is also provided at the 2 weeks and 4 weeks timepoints (“BN”).
# FIGS. 12A and 12B provide immunohistochemistry (IHC) analysis of the therapeutic effects of anti-FAM19A5 antibody (1-30) and control human IgG antibody administration in the middle cochlear region 8 weeks after temporary threshold shift (TTS) (i.e., noise induction).
# To assess whether the FAM19A5 antagonists described herein can treat hearing loss, a noise-induced hearing loss mouse model was used. Briefly, for hearing loss induction, the animals were exposed to a temporary threshold shift (TTS) of 105 decibels for 30 minutes. An anti-FAM19A5 antibody (1-30 antibody) or a control human IgG antibody was intravenously administered to C57BL/6 mice (8 weeks old) once weekly for 5 total administrations (30 mg/kg per dose). […] To assess the effect on hearing loss, ABR threshold, DPOAE threshold, and/or DPOAE amplitude were measured at various time points (see “hearing test” in FIG. 6A). […]
# Chain of human FAM19A5 (Q7Z5A7 26-125 isoform Q7Z5A7-2 limits assumed): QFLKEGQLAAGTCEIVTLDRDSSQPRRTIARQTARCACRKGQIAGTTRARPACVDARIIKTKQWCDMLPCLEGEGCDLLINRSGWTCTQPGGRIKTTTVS
Molecule,amino acid residues identified as important binding residues [1],"DPOAE amplitude vs control antibody ([2]; 2 weeks after TTS exposure, about 18 kHz frequency)",number of ribbon bodies per cell in IHC and OHC vs hIgG ([2]; 8 weeks after TTS),"ABR threshold values vs values prior to TTS exposure ([2]; all time points assessed after TTS, 30 mg/kg i.v. weekly x5, first dose one day before noise)","DPOAE threshold values vs control IgG antibody ([2]; before and 1 day, 2 weeks, 4 weeks after TTS, 30 mg/kg i.v. weekly)","increase in ABR threshold after TTS exposure, vs control antibody ([2]; day 1 post TTS (105 dB, 30 min), 30 mg/kg i.v. weekly x5, first dose one day before noise)",ABR wave I amplitude vs control antibody ([2]; four weeks post noise exposure),"expression of CtBP2 (cochlear ribbon synapse marker) in the IHC vs control antibody ([2]; middle cochlear region, 8 weeks after TTS)",ABR wave I amplitude vs control antibody ([2]; two weeks post noise exposure)
B1,"38-50 ([…]; i.e., SEQ ID NO: 199) and 51-64 ([…]; i.e., SEQ ID NO: 200)",,,,,,,,
B2,,higher DPOAE amplitude,increased number of ribbon bodies per cell,comparable to corresponding values prior to the TTS exposure,no noticeable differences,much more dramatic in animals treated with the control antibody,noticeable differences were observed,noticeable increase,noticeable differences were observed

# — US20260265360A1, “USE OF ANTI-FAM19A5 ANTAGONISTS FOR TREATING HEARING DISORDERS” (NEURACLE SCIENCE CO., LTD., priority 2023, published 2026)
